Measured values reported in patent US20190241648A1 (STATEN BIOTECHNOLOGY B V, published 2019).
Ends that are not written are not given here.

Tests used:
Test in all cases: peptide microarray
ApoC3 peptide … P69F = target: T1, ApoC3 peptide … P69F (human, not fully specified (bridges); also: cyclic constrained)
T1 peptide: DKFSEFWDLDFEV
Procedure: (§1) F64 was completely variable.
(§2) Pre: staining of one of the ApoC3 peptide microarrays was done with the secondary antibody goat anti-human IgG (Fe) DyLight680 (1:5000) and control antibody mouse monoclonal anti-HA (12CA5) DyLight800 (1:2000) to investigate background interactions of the secondary antibody with the antigen-derived peptides that could interfere with the main assays. Subsequent incubation of other ApoC3 peptide microarrays with antibody samples was followed by staining with secondary and control antibodies as well as read-out at scanning intensities of 7/7 (red/green). The additional HA peptides framing the peptide arrays were stained as internal quality control to confirm the assay quality and the peptide microarray integrity.

ApoC3 peptide … P69Q = ApoC3 peptide … P69Q (human, cyclic constrained)
Procedure: as §1, §2

ApoC3 peptide … P69V = ApoC3 peptide … P69V (human, cyclic constrained)
Procedure: as §1, §2

ApoC3 peptide … K60Q = target: T2, ApoC3 peptide … K60Q (human, not fully specified (bridges); also: cyclic constrained)
T2 peptide: DQFSEFWDLDPEV
Procedure: as §1, §2

ApoC3 peptide … D68T = ApoC3 peptide … D68T (human, cyclic constrained)
Procedure: as §1, §2

ApoC3 peptide … K60D = target: T3, ApoC3 peptide … K60D (human, not fully specified (bridges); also: cyclic constrained)
T3 peptide: DDFSEFWDLDPEV
Procedure: as §1, §2

ApoC3 peptide … E70I = target: T4, ApoC3 peptide … E70I (human, not fully specified (bridges); also: cyclic constrained)
T4 peptide: DKFSEFWDLDPIV
Procedure: as §1, §2

ApoC3 peptide … D59P = target: T5, ApoC3 peptide … D59P (human, cyclic constrained)
T5 peptide: PKFSEFWDLDPEV
Procedure: as §1, §2

ApoC3 peptide … F61D = target: T6, ApoC3 peptide … F61D (human, cyclic constrained)
T6 peptide: DKDSEFWDLDPEV
Procedure: as §1, §2

ApoC3 peptide … F64Y = target: T7, ApoC3 peptide … F64Y (human, not fully specified (bridges); also: cyclic constrained)
T7 peptide: DKFSEYWDLDPEV
Procedure: as §1, §2

ApoC3 peptide … P69N = ApoC3 peptide … P69N (human, cyclic constrained)
Procedure: as §1, §2

ApoC3 peptide … E70S = target: T8, ApoC3 peptide … E70S (human, cyclic constrained)
T8 peptide: DKFSEFWDLDPSV
Procedure: as §1, §2

ApoC3 peptide … F64D = target: T9, ApoC3 peptide … F64D (human, not fully specified (bridges); also: cyclic constrained)
T9 peptide: DKFSEDWDLDPEV
Procedure: as §1, §2

ApoC3 peptide … F61S = target: T10, ApoC3 peptide … F61S (human, not fully specified (bridges); also: cyclic constrained)
T10 peptide: DKSSEFWDLDPEV
Procedure: as §1, §2

ApoC3 peptide … E63L = ApoC3 peptide … E63L (human, cyclic constrained)
Procedure: as §1, §2

ApoC3 peptide … D59A = target: T11, ApoC3 peptide … D59A (human, cyclic constrained)
T11 peptide: AKFSEFWDLDPEV
Procedure: as §1, §2

ApoC3 peptide … W65T = target: T12, ApoC3 peptide … W65T (human, not fully specified (bridges); also: cyclic constrained, ring type and places not given here)
T12 peptide: DKFSEFTDLDPEV
Procedure: as §1, §2

ApoC3 peptide … K60Y = target: T13, ApoC3 peptide … K60Y (human, not fully specified (bridges); also: cyclic constrained)
T13 peptide: DYFSEFWDLDPEV
Procedure: as §1, §2

ApoC3 peptide … E63M = ApoC3 peptide … E63M (human, cyclic constrained)
Procedure: as §1, §2

ApoC3 peptide … L67H = target: T14, ApoC3 peptide … L67H (human, not fully specified (bridges); also: cyclic constrained)
T14 peptide: DKFSEFWDHDPEV
Procedure: as §1, §2

ApoC3 peptide … D66E = target: T15, ApoC3 peptide … D66E (human, not fully specified (bridges); also: cyclic constrained)
T15 peptide: DKFSEFWELDPEV
Procedure: as §1, §2

ApoC3 peptide … D68I = target: T16, ApoC3 peptide … D68I (human, cyclic constrained)
T16 peptide: DKFSEFWDLIPEV
Procedure: as §1, §2

ApoC3 peptide … V71G = ApoC3 peptide … V71G (human, cyclic constrained)
Procedure: as §1, §2

ApoC3 peptide … V71M = ApoC3 peptide … V71M (human, cyclic constrained)
Procedure: as §1, §2

ApoC3 peptide … D66N = target: T17, ApoC3 peptide … D66N (human, not fully specified (bridges); also: cyclic constrained)
T17 peptide: DKFSEFWNLDPEV
Procedure: as §1, §2

ApoC3 peptide … E70M = target: T18, ApoC3 peptide … E70M (human, not fully specified (bridges); also: cyclic constrained)
T18 peptide: DKFSEFWDLDPMV
Procedure: as §1, §2

ApoC3 peptide … E63D = ApoC3 peptide … E63D (human, cyclic constrained)
Procedure: as §1, §2

ApoC3 peptide … E70A = ApoC3 peptide … E70A (human, cyclic constrained)
Procedure: as §1, §2

ApoC3 peptide … F61K = target: T19, ApoC3 peptide … F61K (human, not fully specified (bridges); also: cyclic constrained)
T19 peptide: DKKSEFWDLDPEV
Procedure: as §1, §2

ApoC3 peptide … S62L = ApoC3 peptide … S62L (human, cyclic constrained)
Procedure: as §1, §2

ApoC3 peptide … F64A = target: T20, ApoC3 peptide … F64A (human, not fully specified (bridges); also: cyclic constrained)
T20 peptide: DKFSEAWDLDPEV
Procedure: as §1, §2

ApoC3 peptide … W65P = target: T21, ApoC3 peptide … W65P (human, not fully specified (bridges); also: cyclic constrained, ring type and places not given here)
T21 peptide: DKFSEFPDLDPEV
Procedure: as §1, §2

ApoC3 peptide … W65A = ApoC3 peptide … W65A (human, cyclic constrained)
Procedure: as §1, §2

ApoC3 peptide … S62C = ApoC3 peptide … S62C (human, cyclic constrained)
Procedure: as §1, §2

ApoC3 peptide … D68R = target: T22, ApoC3 peptide … D68R (human, cyclic constrained)
T22 peptide: DKFSEFWDLRPEV
Procedure: as §1, §2

ApoC3 peptide … D66Y = target: T23, ApoC3 peptide … D66Y (human, not fully specified (bridges); also: cyclic constrained)
T23 peptide: DKFSEFWYLDPEV
Procedure: as §1, §2

ApoC3 peptide … F61L = target: T24, ApoC3 peptide … F61L (human, not fully specified (bridges); also: cyclic constrained)
T24 peptide: DKLSEFWDLDPEV
Procedure: as §1, §2

B1: anti-ApoC3 antibody 6A6 (antibody, V domains shown)
VH: EVQLVESGGGLVQPGGSLRLSCAASGFTFSSYAGRWVRQVPGKGLEWVSSINAGGGSTSYADSVKGRFTISRDNAKNTLYLQMNSLKPEDTAKYYCTQNSYRYWGQGTRVAVSS
VL: DVVLTQTPGSLSVVPGESASISCKASQSLIHTDGKTYLYWLLQKPGQRPQLLIYQVSSHESGVPDRFTGSGSGTDFTLKISGVKAEDAGVYYCAQATYNPRTFGQGTKLEIK
notes: it was detected with goat anti-human IgG (Fc); also called mAb 6A6; llama antibody 6A6
% of binding to wild-type peptide (ApoC3 peptide … P69F): 97.7%
% of binding to wild-type peptide (ApoC3 peptide … P69Q): 28.2%
% of binding to wild-type peptide (ApoC3 peptide … P69V): 68.3%
% of binding to wild-type peptide (ApoC3 peptide … K60Q): 140%
% of binding to wild-type peptide (ApoC3 peptide … D68T): 0.69%
% of binding to wild-type peptide (ApoC3 peptide … K60D): 151%
% of binding to wild-type peptide (ApoC3 peptide … E70I): 1.59%
% of binding to wild-type peptide (ApoC3 peptide … D59P): 107%
% of binding to wild-type peptide (ApoC3 peptide … F61D): 31.3%
% of binding to wild-type peptide (ApoC3 peptide … F64Y): 86.4%
% of binding to wild-type peptide (ApoC3 peptide … P69N): 32.7%
% of binding to wild-type peptide (ApoC3 peptide … E70S): 1.05%
% of binding to wild-type peptide (ApoC3 peptide … F64D): 220%
% of binding to wild-type peptide (ApoC3 peptide … F61S): 39.2%
% of binding to wild-type peptide (ApoC3 peptide … E63L): 10.1%
% of binding to wild-type peptide (ApoC3 peptide … D59A): 86.4%
% of binding to wild-type peptide (ApoC3 peptide … W65T): 105%
% of binding to wild-type peptide (ApoC3 peptide … K60Y): 83.9%
% of binding to wild-type peptide (ApoC3 peptide … E63M): 43.5%
% of binding to wild-type peptide (ApoC3 peptide … L67H): 7.67%
% of binding to wild-type peptide (ApoC3 peptide … D66E): 18.9%
% of binding to wild-type peptide (ApoC3 peptide … D68I): 0%
% of binding to wild-type peptide (ApoC3 peptide … V71G): 109%
% of binding to wild-type peptide (ApoC3 peptide … V71M): 105%
% of binding to wild-type peptide (ApoC3 peptide … D66N): 0%
% of binding to wild-type peptide (ApoC3 peptide … E70M): 2.34%
% of binding to wild-type peptide (ApoC3 peptide … E63D): 77.9%
% of binding to wild-type peptide (ApoC3 peptide … E70A): 0.97%
% of binding to wild-type peptide (ApoC3 peptide … F61K): 37.2%
% of binding to wild-type peptide (ApoC3 peptide … S62L): 81%
% of binding to wild-type peptide (ApoC3 peptide … F64A): 166%
% of binding to wild-type peptide (ApoC3 peptide … W65P): 13.8%
% of binding to wild-type peptide (ApoC3 peptide … W65A): 26.4%
% of binding to wild-type peptide (ApoC3 peptide … S62C): 10.4%
% of binding to wild-type peptide (ApoC3 peptide … D68R): 0.66%
% of binding to wild-type peptide (ApoC3 peptide … D66Y): 0%
% of binding to wild-type peptide (ApoC3 peptide … F61L): 61.3%
